In general, Km refers to the substrate concentration at which the rate is half of its maximum. The term Vmax denotes the top rate of the reaction or transport when substrate is in excess. One may read the kcat as the number of substrate molecules converted per active site and unit of time at saturation. One may read the kcat/Km as the second-order rate constant that governs catalysis at low substrate concentration.

Substrate in data set [1]: NC(=O)c1ccc[n+]([C@@H]2C[C@H](COP(=O)(O)OP(=O)(O)OC[C@H]3O[C@@H](n4cnc5c(N)ncnc54)[C@H](OP(=O)(O)O)[C@@H]3O)[C@@H](O)[C@H]2O)c1
The data set is described as follows: purified protein, by the assay type. Set-up: Spectrophotometric steady-state kinetics with varied oxidised cofactor in 96-well plates. As to conditions: pH 8.0. From the text: (§1) 12 cofactor concentrations of both cofactors ([NADP+ ] or [cNADP+ ]) x 2 (duplicates) = 48 reaction mixtures The enzyme concentration [E] as well as the buffer concentration [buffer] and the measurement conditions ( such as temperature of measurement (Tmeasure); volume (V), preheating time (theat), sequence of process steps (pipetting, preheating, addition of enzyme and measurement) were kept constant for the measurements of a kinetic. The reaction mixtures were pipetted in MTPs with the help of LHS, followed by preheating of the mixture and addition of 25 µL of enzyme solution was added with an electric MCP in multi-dispense mode, and measurement in an Epoch 2 - BioTek photometer. […] Detailed values of concentrations and reaction conditions can be found in the corresponding figures and their discriptons. SUPPORTING INFORMATION S5 Enzymatic activity measurements for NADP+ and carba-NADP+ All assays were performed in 96-well MTP plates in a reaction volume of 200 µL. Reactions were started by adding the enzyme. A detailed overview is given in (Table 2) showing the preferred reaction, the acceptance towards both cofactors (NADP(H) and carba-NADP(H)) and further reaction conditions. For all reactions, multiple negative reactions, were performed without adding a cofactor, enzyme or substrate, respectively. Production of carba-NADP+ The cofactor carba-NADP+ was prepared according to literature(WO 2011/012270 A1) by means of chemical and biocatalytical methods.[2] […] Reaction was followed spectrophotometrically. After full reduction, SsGDH was removed using a centrifugal filter with 10 kDa cut-off. The reduced cofactor was stored at -80 °C until further use. 10 mM stock was diluted 1:10 within the final reaction mixture. Biocatalytic approaches using (carba)-NADPH thus contained 2 mM glucose, 1 mM gluconic acid and 0.2 mM Tris-HCl as contaminants.

Substrate in data set [2]: NC(=O)c1ccc[n+]([C@@H]2O[C@H](COP(=O)(O)OP(=O)(O)OC[C@H]3O[C@@H](n4cnc5c(N)ncnc54)[C@H](OP(=O)(O)O)[C@@H]3O)[C@@H](O)[C@H]2O)c1
The data set is described as follows: purified protein, by the assay type. Set-up: Spectrophotometric steady-state kinetics with varied oxidised cofactor in 96-well plates. As to conditions: pH 8.0.
Text: as §1

Substrate in data set [3]: NC(=O)c1ccc[n+]([C@@H]2C[C@H](COP(=O)(O)OP(=O)(O)OC[C@H]3O[C@@H](n4cnc5c(N)ncnc54)[C@H](OP(=O)(O)O)[C@@H]3O)[C@@H](O)[C@H]2O)c1
The data set is described as follows: steady-state kinetics. It is filed as biochemical, Saccharolobus solfataricus. As to conditions: sugar oxidation; D-glucose activity about half of that with NADP+; varied: cofactor. The source says:
(§2) steady-state kinetics on SsGDH | Looking deeper into the kinetic parameters of a selection of five enzymes | decreased Michaelis constant (K m) for the biomimetic for most of the enzymes

Substrate in data set [4]: NC(=O)c1ccc[n+]([C@@H]2O[C@H](COP(=O)(O)OP(=O)(O)OC[C@H]3O[C@@H](n4cnc5c(N)ncnc54)[C@H](OP(=O)(O)O)[C@@H]3O)[C@@H](O)[C@H]2O)c1
The data set is described as follows: steady-state kinetics. It is filed as biochemical, Saccharolobus solfataricus. As to conditions: sugar oxidation; natural cofactor; varied: cofactor.
Text: as §2

B1: LmG6PDH (Leuconostoc mesenteroides) (protein)
chain: VSEIKTLVTFFGGTGDLAKRKLYPSVFNLYKKGYLQKHFAIVGTARQALNDDEFKQLVRDSIKDFTDDQAQAEAFIEHFSYRAHDVTDAASYAVLKEAIEEAADKFDIDGNRIFYMSVAPRFFGTIAKYLKSEGLLADTGYNRLMIEKPFGTSYDTAAELQNDLENAFDDNQLFRIDHYLGKEMVQNIAALRFGNPIFDAAWNKDYIKNVQVTLSEVLGVEERAGYYDTAGALLDMIQNHTMQIVGWLAMEKPESFTDKDIRAAKNAAFNALKIYDEAEVNKYFVRAQYGAGDSADFKPYLEELDVPADSKNNTFIAGELQFDLPRWEGVPFYVRSGKRLAAKQTRVDIVFKAGTFNFGSEQEAQEAVLSIIIDPKGAIELKLNAKSVEDAFNTRTIDLGWTVSDEDKKNTPEPYERMIHDTMNGDGSNFADWNGVSIAWKFVDAISAVYTADKAPLETYKSGSMGPEASDKLLAANGDAWVFKG
notes: details only in supplement
For B1, in data set [1], the Km stood at 27 µM, the Vmax worked out at 45 µmol/min/mg, the kcat turned out to be 40.7 s⁻¹ and the kcat/Km amounted to 1.51e+06 M⁻¹ s⁻¹. Besides, in data set [2], the Km was 75 µM, the Vmax amounted to 166 µmol/min/mg, the kcat is 150 s⁻¹ and the kcat/Km worked out at 2e+06 M⁻¹ s⁻¹.

B2: ScG6PDH (Saccharomyces cerevisiae S288C) (protein)
chain: SEGPVKFEKNTVISVFGASGDLAKKKTFPALFGLFREGYLDPSTKIFGYARSKLSMEEDLKSRVLPHLKKPHGEADDSKVEQFFKMVSYISGNYDTDEGFDELRTQIEKFEKSANVDVPHRLFYLALPPSVFLTVAKQIKSRVYAENGITRVIVEKPFGHDLASARELQKNLGPLFKEEELYRIDHYLGKELVKNLLVLRFGNQFLNASWNRDNIQSVQISFKERFGTEGRGGYFDSIGIIRDVMQNHLLQIMTLLTMERPVSFDPESIRDEKVKVLKAVAPIDTDDVLLGQYGKSEDGSKPAYVDDDTVDKDSKCVTFAAMTFNIENERWEGVPIMMRAGKALNESKVEIRLQYKAVASGVFKDIPNNELVIRVQPDAAVYLKFNAKTPGLSNATQVTDLNLTYASRYQDFWIPEAYEVLIRDALLGDHSNFVRDDELDISWGIFTPLLKHIERPDGPTPEIYPYGSRGPKGLKEYMQKHKYVMPEKHPYAWPVTKPEDTKDN
notes: details only in supplement
For the protein B2, in data set [1], the Km came to 26 µM, the Vmax stood at 14 µmol/min/mg, the kcat amounted to 13.4 s⁻¹ and the specificity constant (kcat/Km) worked out at 516000 M⁻¹ s⁻¹. Besides, in data set [2], the Km came out at 157 µM, the Vmax was 245 µmol/min/mg, the kcat worked out at 235 s⁻¹ and the specificity constant (kcat/Km) amounted to 1.5e+06 M⁻¹ s⁻¹.

B3: SsGDH (Saccharolobus solfataricus) (protein)
chain: MKAIIVKPPNAGVQVKDVDEKKLDSYGKIKIRTIYNGICGTDREIVNGKLTLSTLPKGKDFLVLGHEAIGVVEESYHGFSQGDLVMPVNRRGCGICRNCLVGRPDFCETGEFGEAGIHKMDGFMREWWYDDPKYLVKIPKSIEDIGILAQPLADIEKSIEEILEVQKRVPVWTCDDGTLNCRKVLVVGTGPIGVLFTLLFRTYGLEVWMANRREPTEVEQTVIEETKTNYYNSSNGYDKLKDSVGKFDVIIDATGADVNILGNVIPLLGRNGVLGLFGFSTSGSVPLDYKTLQEIVHTNKTIIGLVNGQKPHFQQAVVHLASWKTLYPKAAKMLITKTVSINDEKELLKVLREKEHGEIKIRILWE
notes: details only in supplement
With B3, in “steady-state kinetics [3]”, the Michaelis constant (Km) is 10 µM and the kcat turned out to be 1.0 s⁻¹. In the data set “steady-state kinetics [4]”, the Michaelis-Menten constant (Km) amounted to 80 µM and the kcat worked out at 2.25 s⁻¹.

The record behind these values is paper PMC8252718, “carba Nicotinamide Adenine Dinucleotide Phosphate: Robust Cofactor for Redox Biocatalysis” (Angewandte Chemie (International Ed. in English), 2021).
